According to patent US20240117022A1 (GANYMED PHARMACEUTICALS, published 2024):

Key:
murine CLD18A1 [1] = target: T1, murine CLD18A1 (mouse, UniProt P56857 1-264); experiment: overview table of murine antibodies
T1 construct: Transiently expressed on HEK293 cells; also called mouse CLD18A1; NP_062789

human CLD18A1 [2] = target: T2, human CLD18A1 (human, UniProt P56856 1-261); experiment: overview table of murine antibodies
T2 construct: Expressed on transfected HEK293 or CHO cells; also called claudin 18 splice variant 1; NP_057453

human CLD18A1 [3] = target: T2, human CLD18A1; experiment: overview table of chimeric antibodies
human CLD18A1 [4] = target: T2, human CLD18A1; experiment: flow cytometry on HEK293-CLD18A1 cells
murine CLD18A1 [5] = target: T1, murine CLD18A1; experiment: summary of Example 10
human CLD18A1 [6] = target: T2, human CLD18A1; experiment: summary of Example 10

B1: 163E12 (antibody, IgG3, V domains shown)
VH: QIQLVQSGPELKKPGETVKISCKASGYTFTNYGMNWVKQAPGKGLKWMGWINTNTGEPTYAEEFKGRFAFSLETSASTAYLQINNLKNEDTATYFCARLGFGNAMDYWGQGTSVTVSS
VL: DIVMTQSPSSLTVTAGEKVTMSCKSSQSLLNSGNQKNYLTWYQQKPGQPPKLLIYWASTRESGVPDRFTGSGSGTDFTLTISSVQAEDLAVYYCQNDYSYPLTFGAGTKLELK
notes: mouse monoclonal IgG3, kappa; also called 182-D1106-294; DSM ACC2809
Murine CLD18A1 [1]
  binding result: no binding
Human CLD18A1 [2]
  binding result: no binding

B2: ch-163E12 (antibody, V domains shown)
VH: QIQLVQSGPELKKPGETVKISCKASGYTFTNYGMNWVKQAPGKGLKWMGWINTNTGEPTYAEEFKGRFAFSLETSASTAYLQINNLKNEDTATYFCARLGFGNAMDYWGQGTSVTVSS
VL: DIVMTQSPSSLTVTAGEKVTMSCKSSQSLLNSGNQKNYLTWYQQKPGQPPKLLIYWASTRESGVPDRFTGSGSGTDFTLTISSVQAEDLAVYYCQNDYSYPLTFGAGTKLELKR
notes: Mouse/human chimeric, human gamma-1 and kappa constant regions; also called chimeric 163E12
Human CLD18A1 [3]
  binding result: no binding

B3: ch-166E2 (antibody, V domains shown)
VH: QVQLQQSGPELVKPGASVKMSCKASGYTFTDYVISWVKQRTGQGLEWIGEIYPGSGSTYYNEKFKGKATLTADKSSNTAYMQLSSLTSEDSAVYFCARGVLLRAMDYWGQGTSVTVSS
VL: DIVMSQSPSSLAVSAGEKVTMSCKSSQSLLNSRTRKNYLAWYQQKPGQSPKLLIYWASTRESGVPDRFTGSGSGTDFTLTISSVQAEDLAVYYCKQSYNLYTFGGGTKLEIKR
notes: Mouse/human chimeric, human gamma-1 and kappa constant regions; also called chimeric 166E2
Human CLD18A1 [4]
  binding result: no binding

B4: 166E2 (antibody, IgG3, V domains shown)
VH: QVQLQQSGPELVKPGASVKMSCKASGYTFTDYVISWVKQRTGQGLEWIGEIYPGSGSTYYNEKFKGKATLTADKSSNTAYMQLSSLTSEDSAVYFCARGVLLRAMDYWGQGTSVTVSS
VL: DIVMSQSPSSLAVSAGEKVTMSCKSSQSLLNSRTRKNYLAWYQQKPGQSPKLLIYWASTRESGVPDRFTGSGSGTDFTLTISSVQAEDLAVYYCKQSYNLYTFGGGTKLEIK
notes: mouse monoclonal IgG3, kappa; also called 182-D1106-308
Murine CLD18A1 [5]
  binding result: no binding
Human CLD18A1 [6]
  binding result: no binding

B5: ch-43A11 (antibody, V domains shown)
VH: QVQLQQSGAELMKPGASVKISCKATGYTFSSYWIEWVKQRPGHGLEWIGEILPGSGSTNYNEKFKGKATFTADTSSNTAYMQLSSLTSEDSAVYYCARYDYPWFAYWGQGTLVTVSA
VL: QIVLTQSPAIMSASPGEKVTITCSASSSVSYMHWFQQKPGTSPKLWIYSTSNLASGVPARFSGSGSGTSYSLTISRMEAEDAATYYCQQRSSYPPTFGGGTKLEIKR
notes: Mouse/human chimeric, human gamma-1 and kappa constant regions; also called chimeric 43A11
Human CLD18A1 [4]
  binding result: no binding

B6: 43A11 (antibody, IgG2a, V domains shown)
VH: QVQLQQSGAELMKPGASVKISCKATGYTFSSYWIEWVKQRPGHGLEWIGEILPGSGSTNYNEKFKGKATFTADTSSNTAYMQLSSLTSEDSAVYYCARYDYPWFAYWGQGTLVTVSA
VL: QIVLTQSPAIMSASPGEKVTITCSASSSVSYMHWFQQKPGTSPKLWIYSTSNLASGVPARFSGSGSGTSYSLTISRMEAEDAATYYCQQRSSYPPTFGGGTKLEIK
notes: mouse monoclonal IgG2a, kappa; also called 182-D1106-062; DSM ACC2742
Human CLD18A1 [6]
  binding result: no binding

B7: 125E1 (antibody, IgG2a, V domains shown)
VH: QVQLQQSGAELARPGASVKLSCKASGYTFTDYYINWVKQRTGQGLEWIGEIYPGSGNTYYNEKFKGKATLTADKSSSTAYMQLSSLTSEDSAVYFCARSYGAFDYWGQGTTLTVSS
VL: DIVMTQSQKFMSTSVGDRVSITCKASQNVRTAVAWYQQKPGQSPKALIYLASNRHTGVPDRFTGSGSGTDFTLTISNVQSEDLADYFCLQHWNYPLTFGGGTKLEIK
notes: mouse monoclonal IgG2a, kappa; also called 182-D1106-279; DSM ACC2808
Murine CLD18A1 [1]
  binding result: no binding
Human CLD18A1 [2]
  binding result: no binding

B8: ch-125E1 (antibody, V domains shown)
VH: QVQLQQSGAELARPGASVKLSCKASGYTFTDYYINWVKQRTGQGLEWIGEIYPGSGNTYYNEKFKGKATLTADKSSSTAYMQLSSLTSEDSAVYFCARSYGAFDYWGQGTTLTVSS
VL: DIVMTQSQKFMSTSVGDRVSITCKASQNVRTAVAWYQQKPGQSPKALIYLASNRHTGVPDRFTGSGSGTDFTLTISNVQSEDLADYFCLQHWNYPLTFGGGTKLEIKR
notes: Mouse/human chimeric, human gamma-1 and kappa constant regions; also called chimeric 125E1
Human CLD18A1 [3]
  binding result: no binding
